# Results taken from the DeepSol protein solubility set.
# Experiment: soluble on expression in E. coli; label from the status in PepcDB or PDB records
row,Sequence,soluble on expression in E. coli
1,MKLPVREFDAVVIGAGGAGMRAALQISQSGQTCALLSKVFPTRSHTVSAQGGITVALGNTHEDNWEWHMYDTVKGSDYIGDQDAIEYMCKTGPEAILELEHMGLPFSRLDDGRIYQRPFGGQSKNFGGEQAARTAAAADRTGHALLHTLYQQNLKNHTTIFSEWYALDLVKNQDGAVVGCTALCIETGEVVYFKARATVLATGGAGRIYQSTTNAHINTGDGVGMAIRAGVPVQDMEMWQFHPTGIAGAGVLVTEGCRGEGGYLLNKHGERFMERYAPNAKDLAGRDVVARSIMIEIREGRGCDGPWGPHAKLKLDHLGKEVLESRLPGILELSRTFAHVDPVKEPIPVIPTCHYMMGGIPTKVTGQALTVNEKGEDVVVPGLFAVGEIACVSVHGANRLGGNSLLDLVVFGRAAGLHLQESIAEQGALRDASESDVEASLDRLNRWNNNRNGEDPVAIRKALQECMQHNFSVFREGDAMAKGLEQLKVIRERLKNARLDDTSSEFNTQRVECLELDNLMETAYATAVSANFRTESRGAHSRFDFPDRDDENWLCHSLYLPESESMTRRSVNMEPKLRPAFPPKIRTY,soluble
2,MKLPVVESFFSLQGEGKRIGKPSLFLRLGGCNLSCKGFNCKTLLNDEILTGCDSLYAVHPKFKTSWDYYNEPKPLIERLEDLAPNYKDFDFILTGGEPSLYFNNPILISVLEHFYRQKIPLCVESNGSIFFEFSPILKELHFTLSVKLSFSLEEESKRIHLKALQNILNNAKSAHFKFVLESQNAAQSIIEIQSLLKQLSLKNNEIFLMPLGTNNNELDKNLKTLAPLAIKHGFRLSDRLHIRLWDNQKGF,not soluble
3,MKLPYSITVTYDHRTSPHIPFSSHIGKQNSFFSFLSRKKSMYHHITFCSVPATDGRARGQRPTGHFHLFFVVNRLLPRTRSTTKPSCSFAQPVTPRTREGAGVRGHRRRRRGSLSLIPWKTSNDKQKDDKRSLFCYMREIIAVGNFSKYMLLEHHHHHH,not soluble
4,MKLQSYLMGEWREGQGEGVPVRDASTGEVLARVTAEGLPVKEAVAWGREVGGKALLALGFQERGRRLRALAQYLSERKEALYRLYATTGGTRRDAWYDVDGGIGVLYAYSSLARNLPEGNLLPEDDFLPLSKDLSFQGRHVLAPKGGITVQINAFNFPVWGLLEKFAPAFLAGVPTLAKPATPTAHVAEALVRTMLESGLLPEGSLQLLVGSVGDLFDALDHRDSVFFTGSKATADRLRRHPAFLERGALFNAEADSLNPAILGEKATEEELSRLAQEIAQELVIKTGQRCTAIRRVFAPRERLKALLEATRKRLEALRLGDPREEGVDLGPLASLEQKAEVEKAVAALLEAGARVYWRHPGREDGAFFPPTLLLAEDPWPGALHQVEPFGPVATFFPYGSREEAARLAALGGGSLVATLATSDPEEARFYLLALAPYVGRLHLLNARTAASSTGHGSPLPRLLHGGPGRAGGGEELGGLLSVRRHLGRVALQADPWLLSALTGEYAKGAEKPAEVHPFRKAYEDLEVGETLTTHRRTVTEADIALFSALSWDHFYAHTDEIAARESLFGKRVAHGYFVLSAAAGLFVDPAPGPVLANYGLEGLRFLEPVGAGDTLQVRLTVKRKRPRDEKTGVVEWAAEVVNQEGKPVATYTVLTLVARKGALAKGS,soluble
5,MKLSRRSFMKANAVAAAAAAAGLSVPGVARAVVGQQEAIKWDKAPCRFCGTGCGVLVGTQQGRVVACQGDPDAPVNRGLNCIKGYFLPKIMYGKDRLTQPLLRMKNGKYDKEGEFTPITWDQAFDVMEEKFKTALKEKGPESIGMFGSGQWTIWEGYAASKLFKAGFRSNNIDPNARHCMASAVVGFMRTFGMDEPMGCYDDIEQADAFVLWGANMAEMHPILWSRITNRRLSNQNVTVAVLSTYQHRSFELADNGIIFTPQSDLVILNYIANYIIQNNAINQDFFSKHVNLRKGATDIGYGLRPTHPLEKAAKNPGSDASEPMSFEDYKAFVAEYTLEKTAEMTGVPKDQLEQLAQLYADPNKKVISYWTMGFNQHTRGVWANNLVYNLHLLTGKISQPGCGPFSLTGQPSACGTAREVGTFAHRLPADMVVTNEKHRDICEKKWNIPSGTIPAKIGLHAVAQDRALKDGKLNVYWTMCTNNMQAGPNINEERMPGWRDPRNFIIVSDPYPTVSALAADLILPTAMWVEKEGAYGNAERRTQFWRQQVQAPGEAKSDLWQLVQFSRRFKTEEVWPEDLLAKKPELRGKTLYEVLYATPEVSKFPVSELAEDQLNDESRELGFYLQKGLFEEYAWFGRGHGHDLAPFDDYHKARGLRWPVVNGKETQWRYSEGNDPYVKAGEGYKFYGKPDGKAVIFALPFEPAAEAPDEEYDLWLSTGRVLEHWHTGSMTRRVPELHRAFPEAVLFIHPLDAKARDLRRGDKVKVVSRRGEVISIVETRGRNRPPQGLVYMPFFDAAQLVNKLTLDATDPLSKETDFKKCAVKLEKV,not soluble
6,MKLVPDAFHPGYWGPLLSAHMPRTAYLPVSESFISALQRDSLNEADAERLQSDFSELIQGLSHAMDYLRTDHSTSEGFCPKLNGKLPYDAAWILGRHAPCCYTWNEAMMVLRASSRIHEPTRTSWQGSFCLVVQRWEQIHPANEFRCFISSCRVIAICQRHPDTPYPFLARERDRLVNAMVSFYETHVRPLHPAYAECILDCYLDDSQSVRTLGIDAWSDDALLLFEVSEMEALRAQAAAAFPGQHSDPDGHRQSEAPGEDATGATVSFRSVAQGFAAVPWGWSEKLPLELGDDFLRARIQRNASD,not soluble
7,MKMKKKKRKMFDVFEHVLNQIVGNGVLLLRRIVIDRSKQHKHFHLIMTYKCIFVVAQHTLVDRLESDNNGEQKFQKLCFI,not soluble
8,MKMKTDDTFNHAHADRLLLPNASLLGEVENMLADGRSVMLKATGNSMLPFIVGGRDSVLVRRPSGIQALQVWQIALAHLPDSRYVLHRIVRIHGAEIVLMGDGNLKETESCRFPDITGVVTRIIRNGRYVDCDAGGERCKAKIWGRLLPIRRYLLYIYRRVWI,not soluble
9,MKMNNTKEYSIRTPSLGNLPPGTTGTCCPPPLVFPLLPLSPPPSPPPSPSSPPRLPPPFPALFPPEPPLPPRFELPPPLFPPPPLPRLPPPLLPPPEEPPREPPPPPPPPEEPPPPASCLRTKSPENGIVSTVK,not soluble
10,MKMWQRKTDSSGVIQMDLKKLEGIFEGMLFASGDKVSIEKLSSITGIDKKTVKLVINNMIVKYNNDPSRGITIREINNGYQLCSKPEYYDYIKQLFEPKQRSGLSQAALETLAIIAYNRPITKAKIEQIRGVNSDSAITKLLEKNLIREAGRLDAPGKPVLYETTDEFFRSFGFKSDADLPIFELNDIHETVEINQNSEQEKADTELEKQEKA,not soluble
11,MKNDSFLDKVIGSLLSQNFQVDSNAYTYGLVKGKNDSFSGKVIDGIDVAKSILAIAQIFGSPIDSDCADFKTIFNGEGFKKDLKALYSMTDAVLYKFILGQPLIVGVVKADSLTHNEIYDITDKFDKAILGFRKYTARMKWTKCR,not soluble
12,MKNFVRTTLLAATLAGVSFGAFATAVPNPPLPAQDPIVQHLKLTNDQITRIKKLHQQLETDVSQISMKGIKDGALIEVIKSGKWDDAAVKQQLAAFSNIEQQARYYRVKYYFDLSKVLTPEQRQQVQQDLAQALE,not soluble
13,MKNNADYIEMKVPAQPEYVGIIRLTLSGVASRMGYTYDEIEDLKIAVSEACTNAVQHAYKEDKNGEVSIRFGVFEDRLEVIVADEGDSFDFDQKQQDLGPYTPSHTVDQLSEGGLGLYLMETLMDEVRVQNHSGVTVAMTKYLNGERVDHDTTIKNYETN,soluble
14,MKNVEEQAEREIALSDEMVLQFLQQNPDFFIRNARPVEQMRVPHPVRGTVSLVEWQLARQRNHITQLEEEITLLMEQAGANEVLFNRLLGLQTELASAESLTDMLDRLQRWARQLGLAGAAVRLFSDKWRIGAPSDFTHLGLNRSSFEPLRIQRFGQHNHYLGSLNGPELLLLLPQARQVGSVALSLMGNHHDLGVLIFSSRDSHHYQNGMGTVLLQQMAMMLPAMLARWVERVLEHHHHHH,not soluble
15,MKNYHDIVLALAGVCQSAKLVHQLATESRADSETFLTALNSLFITQPQRIEDVFGGEVRHLKLGLETLIHQLNAQGDQNLTRYWLSLLALEGKLSKNSDAKQTLGNRISRLKEQEIHYARDSETMLSIMANIYSDIISPLGKKIHILGSPDYLRQELVQNKIRAVLLAGIRSAVLWKQMGGTKWQILFFRRKLLATAKQIYSSIY,not soluble
16,MKPANLIHPSVIMSKKYNKMGEGCIICASNIITVNVTLGDHIIVNLDCTIGHDVVINDYVTIYPSVNVSGNCNIGECVELGTGTQVIQGNNIGDRTIVGAGSVVIRNIEGDKVAVGVPTKVIKLEHHHHHH,not soluble
